Experimental data reported in a protein production outcome set (Wang et al. 2014).

Assay: label from the status in PepcDB records
In the case of “MNIFKKIKNLSAEFKQNWFQYLILFTSISILNQFVFIPLFRYITTFVLQAGAIPFISYSNLVIILSEHPFVVFFLLIELALLLFVIYSQFALIILFIKNNFALKASISEFGQCLRHFRLGSLLLLAIYFLLVIPFANVVFRTPLLAKIKIPQFIIDYMTRSGILLAILIIFYLVIFVLAFRFLLTLPIMVIYKTTTREAMKKSAFLMKKNWRKVIGFFVPLGILAIVIMAINVGGAYLLQLIWDTFPGKFALIMATINLTLFQIISEVFLIWVSAVSLYFLVKLVTKNNNEIKEKVTNNKIILITIISIWSLAITGNIIENVFYLAGLDDHVPVTISHRGVNDKNGVQNTIESLKKTAKLKPDYVEIDVHETKDNQFVIMHDENLKKLTGKDKRPKELTLNQLTKLIAKEDGYKGKVVSLDQYMQAAQKLKQKLLIEIKTTPNDSNEFLVKFNKKYGHEILKNHYQLQSLDYRVVTKMQQLNPKIETLYIQPYNLIYPQSVADGYSMEYSTLSSDFIWQAHLQNHVVYAWTVNNKSEMKKMMYEHVDGIITDNISMLNTAIKEFQSRQSYANRILNYMMAFPILD”, the protein production is reported as “failed”.
With “MNIGVIILAAGEGKRFGGDKLLAKIDNTPIIMRTIRIYGDLEKIIIVGKYVNEMLPLLMDQIVIYNPFWNEGISTSLKLGLRFFKDYDAVLVALGDMPFVTKEDVNKIINTFKPNCKAVIPTHKGERGNPVLISKSLFNEIEKLRGDVGARVILNKIKIEELCFIECSEGVLIDIDKKEDLMRLRDFHP” the protein production was “failed”.
With “MNIILNGGPAELHGTTVADLIAQTAPQKPFAVAVNTVFVPKGAYAETVLNENDKIDIVRPVVGG” the protein production was “failed”.
With “MNILLAMIPAFFWGTTYAVTQFTLPDWPPVLLGALRALPAGLLLLAIKPSLPKKHEWKVLLVLGTINIAFFFGLIFVMALTLPSAISGVGMISVPVFAMLFGWAVYKRQPSAIQGISGAVLIALAWFLFDPSSISLNPIGLGAMLAAIMCIVIGSSVTKSLGTKMHWWTVLTWQLILGGVLLSIAAAVLATINPQPYVHAVQNIDMTNTLGLLWVIVLNTALGYGMYVWLLQRMSVVDFTFGGIANPIAGIVSGLLLLGENFTPLQYSLMVGMIVMSLLPQILTSLRARKEAITV” the protein production was “failed”.
With “MNILLLIGGLILILLGANGLTDGAASVAKRFRIPSIVIGLTIVAFGTSAPELTVSVASALKGSADIAIGNVVGSNIFNTLMIVGCTALFAPIIITRNTLRKEIPLCILSSVVLLICANDIFLDNATENILNRVDGLLLLCFFAIFMGYTFAIAFPKSSAAPEPAAPEHTAPEEEIKLLSWWKSILYIIGGLAALIYGGQLFVNGATGIARSMGVSESIIGLTLVAGGTSLPELATSIVAALKKNPEMAIGNVIGSNLFNIFFVLGCSASITPLHLSGITNFDLFTLVGSSILLWLFGLFFAKRTITRIEGSIMILCYVAYTVVLIYNS” the protein production was “failed”.
With “MNILLRLQLFFQITGHYASYFLAYIFETIFFLIFVFVSLIAMIYLFRKYMARLQLRYGPNRVGKFGSLQLIADAIKLVGKESILPKLRDDFAYKTAPYIVFIGLVVGFILIPYGDFYWIGSLTITHSDVSLILFFGAIAMMPIGEILAGISSHNKYALLGAMRGVAKDVSFEVPMMLSAIALVMMDSAVNKTPLEFSSLVSTQFIPFGILQPLGLFVFMVAMIARSSYTPFDLSESDSEIVSGYSTEYSGMRFGLFYMGMFGSIFLGSLVISLLYLGGYNGPYSSYAGFIYLLIKGLIMVLISFLIWLSMPRIRIDRFVNFGWKILLPIAIINLIWAGFLTLGVIS” the protein production was “failed”.
With “MNILSRIFARTPSLRTRVVVATAIGAAIPVLIVGTVVWVGITNDRKERLDRRLDEAAGFAIPFVPRGLDEIPRSPNDQDALITVRRGNVIKSNSDITLPKLQDDYADTYVRGVRYRVRTVEIPGPEPTSVAVGATYDATVAETNNLHRRVLLICTFAIGAAAVFAWLLAAFAVRPFKQLAEQTRSIDAGDEAPRVEVHGASEAIEIAEAMRGMLQRIWNEQNRTKEALASARDFAAVSSHELRTPLTAMRTNLEVLSTLDLPDDQRKEVLNDVIRTQSRIEATLSALERLAQGELSTSDDHVPVDITDLLDRAAHDAARIYPDLDVSLVPSPTCIIVGLPAGLRLAVDNAIANAVKHGGATLVQLSAVSSRAGVEIAIDDNGSGVPEGERQVVFERFSRGSTASHSGSGLGLALVAQQAQLHGGTASLENSPLGGARLVLRLPGPS” the protein production was “not failed”.
For “MNIQLNGQCRCIPETSSIAGLLAEEGFSERRVAVEVNGEIVPRTLHVNYVLREGDRVEIVHALGGG”, the protein production was “failed”.
